The text below walks through data of US20200317779A1 (GREEN CROSS, published 2020).

Residue numbers refer to the chain shown, from its start.

Sequences and labels used below:
B1: B07 (antibody, human IgG1, lambda, L234A L235A, V domains shown)
VH: EVQLVESGGGLVQPGGSLKLSCAASGFTFNTYAMNWVRQASGKGLEWVGRIRSKYNNYATYYADSVKDRFTISRDDSKNTLYLQMNSLKTEDTAVYYCVRHGNFGNSYVSWFAYWGQGTLVTVSS
VL: QAVVTQEPSLTVSPGGTVTLTCRSSTGAVTTSNYANWFQQKPGQAPRGLIGGTNKRAPWTPARFSGSLLGGKAALTLSGAQPEDEAEYYCALWYSNLWVFGGGTKLTVLG
notes: humanized SP34 IgG1, lambda; also called B7
B2: C16 (antibody, human IgG1, lambda, L234A L235A, V domains shown)
VH: B1 VH with K78Q, N79S, L81A
VL: B1 VL with F38V, G71D
notes: humanized SP34 IgG1, lambda
B3: H15 (antibody, human IgG1, lambda, L234A L235A, V domains shown)
VH: B1 VH with G49A, K78Q, N79S
VL: B1 VL with F38V
notes: humanized SP34 IgG1, lambda
B4: B16 (antibody, human IgG1, lambda, L234A L235A, V domains shown)
VH: B1 VH
VL: B1 VL with F38V, G71D
notes: humanized SP34 IgG1, lambda
B5: F16 (antibody, human IgG1, lambda, L234A L235A, V domains shown)
VH: B1 VH with G49A
VL: B1 VL with F38V, G71D
notes: humanized SP34 IgG1, lambda
B6: E16 (antibody, human IgG1, lambda, L234A L235A, V domains shown)
VH: B1 VH with G49A, L81A
VL: B1 VL with F38V, G71D
notes: humanized SP34 IgG1, lambda
B7: A07 (antibody, human IgG1, lambda, L234A L235A, V domains shown)
VH: B1 VH with L81A
VL: B1 VL
notes: humanized SP34 IgG1, lambda; also called A7
B8: A16 (antibody, human IgG1, lambda, L234A L235A, V domains shown)
VH: B1 VH with L81A
VL: B1 VL with F38V, G71D
notes: humanized SP34 IgG1, lambda
B9: D16 (antibody, human IgG1, lambda, L234A L235A, V domains shown)
VH: B1 VH with K78Q, N79S
VL: B1 VL with F38V, G71D
notes: humanized SP34 IgG1, lambda

The target of the first assay is T1, CD3 on human T cells (H9 cells, ATCC HTB-176) (human).
T1 construct: whole, on cells; The target is printed as 'human T cells'
T1 sequence (P07766 23-207, chain 1 of 3): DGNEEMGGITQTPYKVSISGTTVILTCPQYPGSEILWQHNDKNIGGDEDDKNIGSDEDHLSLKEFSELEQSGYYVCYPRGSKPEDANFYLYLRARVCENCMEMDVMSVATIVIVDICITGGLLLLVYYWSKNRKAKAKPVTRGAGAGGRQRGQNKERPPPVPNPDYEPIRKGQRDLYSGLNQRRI
T1 sequence (P04234 22-171, chain 2 of 3, further chain): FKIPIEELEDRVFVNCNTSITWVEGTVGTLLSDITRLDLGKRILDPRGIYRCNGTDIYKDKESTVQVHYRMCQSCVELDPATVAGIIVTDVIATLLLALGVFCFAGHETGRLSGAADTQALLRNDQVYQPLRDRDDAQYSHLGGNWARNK
T1 sequence (P09693 23-182, chain 3 of 3, further chain): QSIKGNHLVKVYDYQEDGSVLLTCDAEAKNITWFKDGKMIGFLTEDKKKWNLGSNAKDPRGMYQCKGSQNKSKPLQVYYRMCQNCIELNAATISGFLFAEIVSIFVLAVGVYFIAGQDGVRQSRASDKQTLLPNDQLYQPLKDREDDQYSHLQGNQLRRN
Nature of the assay: flow cytometry on H9 cells, 1 µg antibody per 2x10^5 cells in 100 µl, PE anti-human IgG detection. The method, then: The resultant was stored for 25 minutes in the dark at 4° C. Subsequently, treatment with 3 ml of FACS buffer was performed, and centrifugation was performed at 2,000 rpm for 3 minutes. Then, the supernatant was discarded.
Next, 100 μl FACS buffer containing 1 μg of phycoerythrin (PE)-conjugated human IgG antibody was used to treat the cells, and the resultant was stored for 25 minutes in the dark at 4° C. Subsequently, treatment with 3 ml of FACS buffer was performed, and centrifugation was performed at 2,000 rpm for 3 minutes. Then, the supernatant was discarded.
The cells were treated with a 4% formaldehyde solution, stored in the dark at 4° C. for 30 minutes, and then treated with 3 ml of FACS buffer. Centrifugation was performed at 2,000 rpm for 3 minutes, and then the supernatant was discarded. Treatment with 350 μl of FACS buffer was performed, and a flow cytometer was used to perform affinity analysis of the antibodies for the human T cells. The analysis results are illustrated in FIG. 1.
Background: Flow cytometry measures light scatter and fluorescence of single cells or particles in a stream.
Consider B1, for which the “Mean : PE-A” value worked out at 4810.
For the molecule B2, the “Mean : PE-A” value was 17700.
The same measure, in the same setting: the result for B3 reads 9620; that for B4, 16800; that for B5, 9530.
On the same count and under the same terms, the result for B6 reads 11100; that for B7, 4310; that for B8, 16700.
Still for that read-out and setting: the result for B9 reads 18300.

The next assay deals with T2, CD3 on monkey T cells (monkey splenocytes) (monkey).
T2 construct: whole, on cells; The target is printed as 'monkey T cells'
The assay is described as follows: flow cytometry on monkey splenocytes, 1 µg antibody per 10^6 cells in 100 µl, PE anti-human IgG detection. The method, then: Specifically, monkey splenocytes were prepared at 10⁶ cells in 100 μl FACS solution per antibody sample, and then 1 μg of antibody was used to treat the cells. The resultant was stored for 25 minutes in the dark at 4° C. Subsequently, treatment with 3 ml of FACS buffer was performed, and centrifugation was performed at 2,000 rpm for 3 minutes. Then, the supernatant was discarded.
Next, 100 μl FACS buffer containing 1 μg of PE-conjugated human IgG antibody was used to treat the cells, and the resultant was stored for 25 minutes in the dark at 4° C. Subsequently, treatment with 3 ml of FACS buffer was performed, and centrifugation was performed at 2,000 rpm for 3 minutes. Then, the supernatant was discarded.
The cells were treated with a 4% formaldehyde solution, stored in the dark at 4° C. for 30 minutes, and then treated with 3 ml of FACS buffer. Centrifugation was performed at 2,000 rpm for 3 minutes, and then the supernatant was discarded. Treatment with 350 μl of FACS buffer was performed, and a flow cytometer was used to perform affinity analysis of the antibodies for the […]. The analysis results are illustrated in FIG. 2.
For the molecule B1, the “Mean : Comp-PE-A” value is 4790.
Turning to B2, the “Mean : Comp-PE-A” value is 12100.
Still for that read-out and setting: the result for B3 reads 16700.
As to B4, the “Mean : Comp-PE-A” value is 17200.
Same read-out and setting: the result for B5 reads 11900; that for B6, 13900.
On the same count and under the same terms, the result for B7 reads 6680.
Same read-out and setting: the result for B8 reads 17600; that for B9, 18600.
